Patent US20210388105A1 (ELPISCIENCE SUZHOU BIOPHARMA, published 2021)

Assays:
Experiment in all cases: FACS, mutant-EGFP on HEK293F cells
[1] = molecular target: T1, KW27-3 (human CD39 mutant, C-terminal EGFP) (human, UniProt P49961 1-510)
T1 construct: expressed on HEK293F cells; not shown: C-terminal EGFP fusion (vector pCMV3-GFPSpark)
T1 chain: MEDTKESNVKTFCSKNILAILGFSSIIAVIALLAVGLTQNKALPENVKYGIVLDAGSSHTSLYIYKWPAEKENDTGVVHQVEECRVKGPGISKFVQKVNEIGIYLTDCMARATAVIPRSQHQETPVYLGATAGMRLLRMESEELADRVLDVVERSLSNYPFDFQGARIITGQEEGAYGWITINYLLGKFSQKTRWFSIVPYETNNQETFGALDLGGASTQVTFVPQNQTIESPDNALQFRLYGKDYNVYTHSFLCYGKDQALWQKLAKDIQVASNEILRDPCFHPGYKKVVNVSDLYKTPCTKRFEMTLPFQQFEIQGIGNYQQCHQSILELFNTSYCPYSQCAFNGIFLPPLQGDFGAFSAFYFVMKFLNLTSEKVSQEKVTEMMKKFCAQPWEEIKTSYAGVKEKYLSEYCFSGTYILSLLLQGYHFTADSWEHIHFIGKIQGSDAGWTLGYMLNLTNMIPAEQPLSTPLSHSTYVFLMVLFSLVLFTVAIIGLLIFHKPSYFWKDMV
Experimental: (§1) Briefly, the human CD39 mutants were generated by gene synthesis and then cloned into an expression vector pCMV3-GFPSpark. The vectors containing the validated mutated sequences were prepared and transfected into HEK293F cells. Three days post transfection, the cells were collected to testing EGFP for transgene expression. A range of dosages of antibodies (start from 100 nM, 3-folds dilution, 11 points) were tested on the 20 generated mutants and stained by AlexFluor647 labelled anti-hIgG by FACS. Antibody binding was descripted as relative binding which is derived from AlexFluor647 intensity divided by GFP intensity.

[2] = molecular target: T2, KW27-10 (human CD39 mutant, C-terminal EGFP) (human, UniProt P49961 1-510)
T2 construct: expressed on HEK293F cells; not shown: C-terminal EGFP fusion (vector pCMV3-GFPSpark)
T2 chain: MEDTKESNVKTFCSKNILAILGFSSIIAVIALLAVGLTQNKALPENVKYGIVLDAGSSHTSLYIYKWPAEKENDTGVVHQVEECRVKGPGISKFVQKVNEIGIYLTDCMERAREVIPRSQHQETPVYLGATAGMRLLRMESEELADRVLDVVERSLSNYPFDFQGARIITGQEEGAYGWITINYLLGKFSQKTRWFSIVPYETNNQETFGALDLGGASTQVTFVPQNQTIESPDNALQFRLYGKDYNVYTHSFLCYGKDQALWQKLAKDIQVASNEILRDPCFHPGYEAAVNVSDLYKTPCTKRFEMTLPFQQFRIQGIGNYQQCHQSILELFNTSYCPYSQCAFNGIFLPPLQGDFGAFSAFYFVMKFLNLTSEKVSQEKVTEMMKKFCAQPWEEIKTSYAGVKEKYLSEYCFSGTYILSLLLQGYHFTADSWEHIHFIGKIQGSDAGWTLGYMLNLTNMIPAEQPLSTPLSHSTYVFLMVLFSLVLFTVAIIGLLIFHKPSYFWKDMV
Experimental: as §1

[3] = molecular target: T3, KW27-13 (human CD39 mutant, C-terminal EGFP) (human, UniProt P49961 1-510)
T3 construct: expressed on HEK293F cells; not shown: C-terminal EGFP fusion (vector pCMV3-GFPSpark)
T3 chain: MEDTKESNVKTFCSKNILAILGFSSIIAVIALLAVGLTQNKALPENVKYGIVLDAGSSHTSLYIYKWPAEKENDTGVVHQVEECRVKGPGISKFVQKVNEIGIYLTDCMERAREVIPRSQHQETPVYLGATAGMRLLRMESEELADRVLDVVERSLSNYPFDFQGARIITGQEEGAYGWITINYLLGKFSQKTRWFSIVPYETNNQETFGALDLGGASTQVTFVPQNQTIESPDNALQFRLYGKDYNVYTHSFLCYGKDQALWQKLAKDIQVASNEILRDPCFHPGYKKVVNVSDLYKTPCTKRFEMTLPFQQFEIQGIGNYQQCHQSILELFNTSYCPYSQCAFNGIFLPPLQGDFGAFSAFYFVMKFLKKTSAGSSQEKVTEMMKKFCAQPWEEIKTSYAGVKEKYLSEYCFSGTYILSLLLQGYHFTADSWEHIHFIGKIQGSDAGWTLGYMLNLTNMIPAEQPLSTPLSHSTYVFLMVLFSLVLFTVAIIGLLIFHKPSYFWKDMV
Experimental: as §1

[4] = molecular target: T4, KW27-18 (human CD39 mutant, C-terminal EGFP) (human, UniProt P49961 1-510)
T4 construct: expressed on HEK293F cells; not shown: C-terminal EGFP fusion (vector pCMV3-GFPSpark)
T4 chain: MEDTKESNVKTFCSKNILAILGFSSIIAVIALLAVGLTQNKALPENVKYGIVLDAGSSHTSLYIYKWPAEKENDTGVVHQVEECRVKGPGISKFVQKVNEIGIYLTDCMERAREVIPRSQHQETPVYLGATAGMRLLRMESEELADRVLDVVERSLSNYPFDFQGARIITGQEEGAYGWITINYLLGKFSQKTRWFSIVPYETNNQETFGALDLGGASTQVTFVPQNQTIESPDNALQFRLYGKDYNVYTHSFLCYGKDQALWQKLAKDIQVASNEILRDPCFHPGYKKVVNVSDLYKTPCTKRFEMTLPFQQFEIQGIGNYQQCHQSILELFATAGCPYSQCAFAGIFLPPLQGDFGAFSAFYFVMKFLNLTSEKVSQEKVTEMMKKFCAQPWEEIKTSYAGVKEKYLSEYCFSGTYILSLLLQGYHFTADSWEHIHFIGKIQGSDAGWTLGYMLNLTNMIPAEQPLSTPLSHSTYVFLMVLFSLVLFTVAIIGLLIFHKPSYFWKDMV
Experimental: as §1

Measured: binding result

B1: Antibody 9-8B (antibody, V domains shown)
VH: QIQLVQSGPELKKPGETVKISCKASGYTFTHYGMNWVKQAPGKGLKWMGWINTYTGELTYADDFKGRFAFSLETSASTAYLQINNLKNEDTATYFCARRAYYRYDYVMDYWGQGTSVTVSS
VL: DIVMTQSQKFMSTSVGDRVSVTCKASHNVGTNVAWYQQKPGQSPKALIYSASYRYSGVPGRFTGSGSGTDFTLTISNVQSEDLAEYFCHQYNNYPYTFGGGTKLEIK
binds: [1] | [2] | [3] | [4]

B2: c35 (antibody, V domains shown)
VH: EVRLQQSGAELVKPGASVKLSCTASGFNIEDTYVHWMKQRPEQGLEWIGRIDPAIDNSKYDPKFQGKATITAVSSSNTAYLQLSSLTSEDTAVYYCALYDGYNVYAMDYWGQGTSVTVSS
VL: DIVMTQAAFSNPVTLGTSASISCRSSKNLLHSNGITYLYWYLQRPGQSPQLLIYRASTLASGVPNRFSGSESGTDFTLRISRVEAEDVGVYYCAQLLELPHTFGGGTKLEIK
notes: its making is not described; also called chimeric antibody c35
binds: [1] | [2] | [3] | [4]

B3: hu23.H5L5 (antibody, V domains shown)
VH: QVQLVQSGAEVKKPGASVKVSCKASGYNLKDTFLHWVRQAPGQGLEWMGRIDPANGNIKYDPKFQGRVTITADTSANTAYMELISLRSEDTAVYYCANSPYYYGSGYRIFDVWGQGTTVTVSS
VL: QIVLTQSPATLSLSPGERATLSCSAFSSVNYMHWYQQKPGQAPRLLIYTTSNLASGIPTRFSGSGSGTSYTLTISSLEPEDFAVYYCQQRSTYPFTFGQGTKLEIK
notes: humanized c23
binds: [1] | [2] | [3] | [4]

B4: c34 (antibody, V domains shown)
VH: EIQVQQSGPELVKPGASVKVSCKASGYSFTDYNMYWVKQSHGKSLEWIGFIDPYNGYTSYNQKFKGKATLTIDKSSSTAFMHLNSLTSEDSAVYYCAIYGYDDAYYFDYWGQGTTLTVSS
VL: QIVLTQSPAIMSASPGEKVTITCSATSSVSYMHWFRQKPGTSPKLWIYSTSNLASGVPARFSGSGSGTSYSLTISRMAAEDAATYYCQQRITYPFTFGSGTKLEIT
notes: its making is not described; also called chimeric antibody c34
binds: [1] | [2] | [3] | [4]

B5: Antibody T895 (antibody, V domains shown)
VH: EVQLQQSGPELVKPGASVKMSCKASGYTFTDYNMHWVKQSHGRTLEWIGYIVPLNGGSTFNQKFKGRATLTVNTSSRTAYMELRSLTSEDSAAYYCARGGTRFAYWGQGTLVTVSA
VL: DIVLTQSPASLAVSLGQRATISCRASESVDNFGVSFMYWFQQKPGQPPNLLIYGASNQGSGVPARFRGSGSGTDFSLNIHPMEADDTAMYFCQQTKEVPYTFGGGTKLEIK
notes: also called 31895
binds: [1] | [2] | [3] | [4]
